The text below walks through data of PMC4117941 (Genes & Development, 2014).

In experiment [1] the target is Mcm3 (HA-Mcm3, subunit of the purified MCM2–7 hexamer) (S. cerevisiae, UniProt P24279 1-971). Put plainly: EM, three-dimensional reconstruction.
The target in experiment [2] is T1, Mcm4 (subunit of the purified MCM2–7 hexamer) (S. cerevisiae, UniProt P30665 1-933).
T1 sequence: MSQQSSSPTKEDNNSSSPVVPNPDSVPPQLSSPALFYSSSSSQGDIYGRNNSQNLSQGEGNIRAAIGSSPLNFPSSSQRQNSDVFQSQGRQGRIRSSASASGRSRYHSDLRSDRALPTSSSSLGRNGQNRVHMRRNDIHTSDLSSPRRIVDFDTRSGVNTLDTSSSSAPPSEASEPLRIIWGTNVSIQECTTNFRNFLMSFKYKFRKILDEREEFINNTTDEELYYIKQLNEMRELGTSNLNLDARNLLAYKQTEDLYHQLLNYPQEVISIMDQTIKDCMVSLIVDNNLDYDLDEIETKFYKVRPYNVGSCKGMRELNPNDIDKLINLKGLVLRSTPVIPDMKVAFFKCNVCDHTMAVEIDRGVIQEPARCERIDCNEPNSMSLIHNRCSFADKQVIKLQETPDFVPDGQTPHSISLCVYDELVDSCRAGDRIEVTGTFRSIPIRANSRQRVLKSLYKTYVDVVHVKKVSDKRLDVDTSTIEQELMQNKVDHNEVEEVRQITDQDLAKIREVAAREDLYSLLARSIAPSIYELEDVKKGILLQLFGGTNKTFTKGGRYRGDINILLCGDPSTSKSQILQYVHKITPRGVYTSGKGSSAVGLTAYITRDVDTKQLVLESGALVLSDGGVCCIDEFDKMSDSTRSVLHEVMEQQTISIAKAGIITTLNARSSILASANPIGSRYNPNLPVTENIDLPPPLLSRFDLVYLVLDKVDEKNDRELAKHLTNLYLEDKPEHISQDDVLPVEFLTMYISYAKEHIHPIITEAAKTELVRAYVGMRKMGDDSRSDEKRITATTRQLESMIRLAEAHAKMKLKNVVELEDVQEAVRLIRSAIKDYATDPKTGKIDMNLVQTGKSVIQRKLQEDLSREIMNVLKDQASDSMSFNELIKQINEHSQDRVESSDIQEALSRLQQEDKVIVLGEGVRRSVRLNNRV
The experiment in a line: EM, three-dimensional reconstruction.

Chain of Mcm3 (HA-Mcm3, subunit of the purified MCM2–7 hexamer) (P24279 whole entry): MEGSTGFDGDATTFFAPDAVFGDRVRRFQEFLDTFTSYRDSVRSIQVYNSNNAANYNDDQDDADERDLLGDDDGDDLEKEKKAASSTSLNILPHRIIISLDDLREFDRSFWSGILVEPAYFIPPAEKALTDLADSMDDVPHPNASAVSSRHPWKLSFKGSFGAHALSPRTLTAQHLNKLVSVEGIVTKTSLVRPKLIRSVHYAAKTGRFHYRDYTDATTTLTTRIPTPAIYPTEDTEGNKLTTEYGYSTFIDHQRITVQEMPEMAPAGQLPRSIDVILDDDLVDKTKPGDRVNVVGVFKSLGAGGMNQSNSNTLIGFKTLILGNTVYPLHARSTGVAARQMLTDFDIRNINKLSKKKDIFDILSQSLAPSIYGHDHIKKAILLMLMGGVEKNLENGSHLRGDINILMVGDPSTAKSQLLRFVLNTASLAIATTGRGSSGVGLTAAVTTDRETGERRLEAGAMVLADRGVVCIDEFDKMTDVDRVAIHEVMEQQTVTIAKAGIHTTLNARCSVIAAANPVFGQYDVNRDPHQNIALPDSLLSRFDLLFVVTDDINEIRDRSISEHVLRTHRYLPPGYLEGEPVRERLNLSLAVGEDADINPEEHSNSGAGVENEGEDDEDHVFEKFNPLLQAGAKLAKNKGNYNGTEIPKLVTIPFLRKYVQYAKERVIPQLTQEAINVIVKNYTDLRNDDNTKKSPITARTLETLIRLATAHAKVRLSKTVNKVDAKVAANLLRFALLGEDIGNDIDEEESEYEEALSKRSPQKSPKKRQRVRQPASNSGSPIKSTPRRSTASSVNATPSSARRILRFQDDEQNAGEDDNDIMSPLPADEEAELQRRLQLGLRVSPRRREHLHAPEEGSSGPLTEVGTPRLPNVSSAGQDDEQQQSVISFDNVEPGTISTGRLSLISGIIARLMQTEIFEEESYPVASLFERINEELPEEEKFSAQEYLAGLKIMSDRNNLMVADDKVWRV

B1: Mcm7 (subunit of the purified MCM2–7 hexamer) (natural protein)
chain: MSAALPSIQLPVDYNNLFNEITDFLVTFKQDTLSSDATRNENEDENLDAENIEQHLLEKGPKYMAMLQKVANRELNSVIIDLDDILQYQNEKFLQGTQADDLVSAIQQNANHFTELFCRAIDNNMPLPTKEIDYKDDVLDVILNQRRLRNERMLSDRTNEIRSENLMDTTMDPPSSMNDALREVVEDETELFPPNLTRRYFLYFKPLSQNCARRYRKKAISSKPLSVRQIKGDFLGQLITVRGIITRVSDVKPAVEVIAYTCDQCGYEVFQEVNSRTFTPLSECTSEECSQNQTKGQLFMSTRASKFSAFQECKIQELSQQVPVGHIPRSLNIHVNGTLVRSLSPGDIVDVTGIFLPAPYTGFKALKAGLLTETYLEAQFVRQHKKKFASFSLTSDVEERVMELITSGDVYNRLAKSIAPEIYGNLDVKKALLLLLVGGVDKRVGDGMKIRGDINVCLMGDPGVAKSQLLKAICKISPRGVYTTGKGSSGVGLTAAVMKDPVTDEMILEGGALVLADNGICCIDEFDKMDESDRTAIHEVMEQQTISISKAGINTTLNARTSILAAANPLYGRYNPRLSPLDNINLPAALLSRFDILFLMLDIPSRDDDEKLAEHVTYVHMHNKQPDLDFTPVEPSKMREYIAYAKTKRPVMSEAVNDYVVQAYIRLRQDSKREMDSKFSFGQATPRTLLGIIRLSQALAKLRLADMVDIDDVEEALRLVRVSKESLYQETNKSKEDESPTTKIFTIIKKMLQETGKNTLSYENIVKTVRLRGFTMLQLSNCIQEYSYLNVWHLINEGNTLKFVDDGTMDTDQEDSLVSTPKLAPQTTASANVSAQDSDIDLQDA
For the molecule B1, the binding result in experiment [1] and in experiment [2] was “binds” throughout.
